Source: PMC4135724 (Nature, 2014)

Target: the molecule itself
Test: SEC

B1: Human E-Syt2 (residues 163-634), fragment comprising the SMP, C2A and C2B domains (domain or fragment, UniProt A0FGR8 191-662, looked up)
chain: DTERAEWLNKTVKHMWPFICQFIEKLFRETIEPAVRGANTHLSTFSFTKVDVGQQPLRINGVKVYTENVDKRQIILDLQISFVGNCEIDLEIKRYFCRAGVKSIQIHGTMRVILEPLIGDMPLVGALSIFFLRKPLLEINWTGLTNLLDVPGLNGLSDTIILDIISNYLVLPNRITVPLVSEVQIAQLRFPVPKGVLRIHFIEAQDLQGKDTYLKGLVKGKSDPYGIIRVGNQIFQSRVIKENLSPKWNEVYEALVYEHPGQELEIELFDEDPDKDDFLGSLMIDLIEVEKERLLDEWFTLDEVPKGKLHLRLEWLTLMPNASNLDKVLTDIKADKDQANDGLSSALLILYLDSARNLPSGKKISSNPNPVVQMSVGHKAQESKIRYKTNEPVWEENFTFFIHNPKRQDLEVEVRDEQHQCSLGNLKVPLSQLLTSEDMTVSQRFQLSNSGPNSTIKMKIALRVLHLEKRER
stoichiometry N: 2
